One block for each binder: values may come before it. *1 amine or outer side, *2 acyl side, *3 side chain or, on linkers, in order; H or OH if unused. Where no end group is shown, it is not given here. Side-chain parts run from the residue outwards. [ ]: non-standard residue; d: D form. The star is where a group is joined. C16 diacid = O=C(O)CCCCCCCCCCCCCCC(=O)*; γGlu = O=C(O)[C@H](CCC(=O)[*:2])N[*:1]; NMeI = CC[C@H](C)[C@H](NC)C(=O)O; αMeL = CC(C)C[C@](C)(N)C(=O)O; AEEA = NCCOCCOCC(=O)O; Aib = CC(C)(N)C(=O)O
What was measured:
[1] = biological target: human corticotropin-releasing factor 2a (CRF2a receptor) (human), Q13324; test: cell-based or functional assay
Chain of human corticotropin-releasing factor 2a (CRF2a receptor) (human), Q13324 (Q13324 20-411): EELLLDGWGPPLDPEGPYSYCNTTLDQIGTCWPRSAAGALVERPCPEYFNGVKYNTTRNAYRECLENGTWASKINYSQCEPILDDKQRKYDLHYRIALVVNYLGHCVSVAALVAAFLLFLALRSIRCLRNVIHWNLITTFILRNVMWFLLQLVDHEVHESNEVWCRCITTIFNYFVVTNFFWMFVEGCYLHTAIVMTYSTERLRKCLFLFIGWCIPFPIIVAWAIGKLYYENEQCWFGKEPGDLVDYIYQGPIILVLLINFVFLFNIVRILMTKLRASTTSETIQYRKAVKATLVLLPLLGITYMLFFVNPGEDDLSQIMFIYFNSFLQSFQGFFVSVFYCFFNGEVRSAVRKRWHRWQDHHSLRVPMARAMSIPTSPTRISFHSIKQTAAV

CRF1R receptor = biological target: T1, CRF1R receptor (UniProt P34998 24-415, limits assumed); test: cell-based or functional assay
T1 sequence (looked up): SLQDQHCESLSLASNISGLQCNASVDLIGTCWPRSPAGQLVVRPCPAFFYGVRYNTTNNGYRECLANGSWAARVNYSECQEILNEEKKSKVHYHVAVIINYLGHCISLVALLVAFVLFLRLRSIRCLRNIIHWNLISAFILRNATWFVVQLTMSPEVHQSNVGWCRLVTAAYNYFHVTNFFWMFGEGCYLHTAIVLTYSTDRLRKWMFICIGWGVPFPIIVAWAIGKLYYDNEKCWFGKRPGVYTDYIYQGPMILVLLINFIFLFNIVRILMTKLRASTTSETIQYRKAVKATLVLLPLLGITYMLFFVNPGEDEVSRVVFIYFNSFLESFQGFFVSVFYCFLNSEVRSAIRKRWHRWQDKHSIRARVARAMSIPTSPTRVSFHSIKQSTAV

Binder: IVLSLD[dV]PIKLK([AEEA-AEEA-γGlu-C16 diacid])QILLKQERQKKQREQAEKNKQILEQV-NH2 [SEQ ID NO 148]
EC50 [nM] (cAMP) [1]: 0.65 nM | EC50 (CRF1R receptor): 100 nM | Emax (% I) (CRF1R receptor): 13%

B1: SEQ ID NO 44 (peptide)
peptide: Ac-IVLSLD[dV]PIK[αMeL]K([γGlu-C16 diacid])KILLEQEKQKKQREQAETN[Aib]QILAQV-NH2
SMILES: CC[C@H](C)[C@H](NC(C)=O)C(=O)N[C@H](C(=O)N[C@@H](CC(C)C)C(=O)N[C@@H](CO)C(=O)N[C@@H](CC(C)C)C(=O)N[C@@H](CC(=O)O)C(=O)N[C@@H](C(=O)N1CCC[C@H]1C(=O)N[C@H](C(=O)N[C@@H](CCCCN)C(=O)N[C@@](C)(CC(C)C)C(=O)N[C@@H](CCCCNC(=O)CC[C@H](NC(=O)CCCCCCCCCCCCCCC(=O)O)C(=O)O)C(=O)N[C@@H](CCCCN)C(=O)N[C@H](C(=O)N[C@@H](CC(C)C)C(=O)N[C@@H](CC(C)C)C(=O)N[C@@H](CCC(=O)O)C(=O)N[C@@H](CCC(N)=O)C(=O)N[C@@H](CCC(=O)O)C(=O)N[C@@H](CCCCN)C(=O)N[C@@H](CCC(N)=O)C(=O)N[C@@H](CCCCN)C(=O)N[C@@H](CCCCN)C(=O)N[C@@H](CCC(N)=O)C(=O)N[C@@H](CCCNC(=N)N)C(=O)N[C@@H](CCC(=O)O)C(=O)N[C@@H](CCC(N)=O)C(=O)N[C@@H](C)C(=O)N[C@@H](CCC(=O)O)C(=O)N[C@H](C(=O)N[C@@H](CC(N)=O)C(=O)NC(C)(C)C(=O)N[C@@H](CCC(N)=O)C(=O)N[C@H](C(=O)N[C@@H](CC(C)C)C(=O)N[C@@H](C)C(=O)N[C@@H](CCC(N)=O)C(=O)N[C@H](C(N)=O)C(C)C)[C@@H](C)CC)[C@@H](C)O)[C@@H](C)CC)[C@@H](C)CC)C(C)C)C(C)C
EC50 [nM] (cAMP) [1]: 0.25 nM | Emax (% I) (CRF1R receptor): 5%

B4: SEQ ID NO 53 (peptide)
peptide: Ac-IVLSLD[dV]PIK[αMeL]K([γGlu-C16 diacid])KILLEQEKQKKQREQAETDKQILAQV-NH2
SMILES: CC[C@H](C)[C@H](NC(C)=O)C(=O)N[C@H](C(=O)N[C@@H](CC(C)C)C(=O)N[C@@H](CO)C(=O)N[C@@H](CC(C)C)C(=O)N[C@@H](CC(=O)O)C(=O)N[C@@H](C(=O)N1CCC[C@H]1C(=O)N[C@H](C(=O)N[C@@H](CCCCN)C(=O)N[C@@](C)(CC(C)C)C(=O)N[C@@H](CCCCNC(=O)CC[C@H](NC(=O)CCCCCCCCCCCCCCC(=O)O)C(=O)O)C(=O)N[C@@H](CCCCN)C(=O)N[C@H](C(=O)N[C@@H](CC(C)C)C(=O)N[C@@H](CC(C)C)C(=O)N[C@@H](CCC(=O)O)C(=O)N[C@@H](CCC(N)=O)C(=O)N[C@@H](CCC(=O)O)C(=O)N[C@@H](CCCCN)C(=O)N[C@@H](CCC(N)=O)C(=O)N[C@@H](CCCCN)C(=O)N[C@@H](CCCCN)C(=O)N[C@@H](CCC(N)=O)C(=O)N[C@@H](CCCNC(=N)N)C(=O)N[C@@H](CCC(=O)O)C(=O)N[C@@H](CCC(N)=O)C(=O)N[C@@H](C)C(=O)N[C@@H](CCC(=O)O)C(=O)N[C@H](C(=O)N[C@@H](CC(=O)O)C(=O)N[C@@H](CCCCN)C(=O)N[C@@H](CCC(N)=O)C(=O)N[C@H](C(=O)N[C@@H](CC(C)C)C(=O)N[C@@H](C)C(=O)N[C@@H](CCC(N)=O)C(=O)N[C@H](C(N)=O)C(C)C)[C@@H](C)CC)[C@@H](C)O)[C@@H](C)CC)[C@@H](C)CC)C(C)C)C(C)C
EC50 [nM] (cAMP) [1]: 8.05 nM | Emax (% I) (CRF1R receptor): 5%

B6: SEQ ID NO 50 (peptide)
peptide: Ac-IVLSLD[dV]PIK[αMeL]K([γGlu-C16 diacid])KILLEQEKQKKQREQAETNVQILAQV-NH2
SMILES: CC[C@H](C)[C@H](NC(C)=O)C(=O)N[C@H](C(=O)N[C@@H](CC(C)C)C(=O)N[C@@H](CO)C(=O)N[C@@H](CC(C)C)C(=O)N[C@@H](CC(=O)O)C(=O)N[C@@H](C(=O)N1CCC[C@H]1C(=O)N[C@H](C(=O)N[C@@H](CCCCN)C(=O)N[C@@](C)(CC(C)C)C(=O)N[C@@H](CCCCNC(=O)CC[C@H](NC(=O)CCCCCCCCCCCCCCC(=O)O)C(=O)O)C(=O)N[C@@H](CCCCN)C(=O)N[C@H](C(=O)N[C@@H](CC(C)C)C(=O)N[C@@H](CC(C)C)C(=O)N[C@@H](CCC(=O)O)C(=O)N[C@@H](CCC(N)=O)C(=O)N[C@@H](CCC(=O)O)C(=O)N[C@@H](CCCCN)C(=O)N[C@@H](CCC(N)=O)C(=O)N[C@@H](CCCCN)C(=O)N[C@@H](CCCCN)C(=O)N[C@@H](CCC(N)=O)C(=O)N[C@@H](CCCNC(=N)N)C(=O)N[C@@H](CCC(=O)O)C(=O)N[C@@H](CCC(N)=O)C(=O)N[C@@H](C)C(=O)N[C@@H](CCC(=O)O)C(=O)N[C@H](C(=O)N[C@@H](CC(N)=O)C(=O)N[C@H](C(=O)N[C@@H](CCC(N)=O)C(=O)N[C@H](C(=O)N[C@@H](CC(C)C)C(=O)N[C@@H](C)C(=O)N[C@@H](CCC(N)=O)C(=O)N[C@H](C(N)=O)C(C)C)[C@@H](C)CC)C(C)C)[C@@H](C)O)[C@@H](C)CC)[C@@H](C)CC)C(C)C)C(C)C
EC50 [nM] (cAMP) [1]: 0.26 nM | Emax (% I) (CRF1R receptor): 9%

Second part, the binder after the results:

EC50 [nM] (cAMP) [1]: 0.34 nM | Emax (% I) (CRF1R receptor): 8%
B2: SEQ ID NO 67 (peptide)
peptide: [NMeI]VLSLD[dV]PIK[αMeL]K([γGlu-C16 diacid])KILLEQEKQKKQREQAETNVQILAQV-NH2
modifications: N-terminus assumed
SMILES: CC[C@H](C)[C@H](NC)C(=O)N[C@H](C(=O)N[C@@H](CC(C)C)C(=O)N[C@@H](CO)C(=O)N[C@@H](CC(C)C)C(=O)N[C@@H](CC(=O)O)C(=O)N[C@@H](C(=O)N1CCC[C@H]1C(=O)N[C@H](C(=O)N[C@@H](CCCCN)C(=O)N[C@@](C)(CC(C)C)C(=O)N[C@@H](CCCCNC(=O)CC[C@H](NC(=O)CCCCCCCCCCCCCCC(=O)O)C(=O)O)C(=O)N[C@@H](CCCCN)C(=O)N[C@H](C(=O)N[C@@H](CC(C)C)C(=O)N[C@@H](CC(C)C)C(=O)N[C@@H](CCC(=O)O)C(=O)N[C@@H](CCC(N)=O)C(=O)N[C@@H](CCC(=O)O)C(=O)N[C@@H](CCCCN)C(=O)N[C@@H](CCC(N)=O)C(=O)N[C@@H](CCCCN)C(=O)N[C@@H](CCCCN)C(=O)N[C@@H](CCC(N)=O)C(=O)N[C@@H](CCCNC(=N)N)C(=O)N[C@@H](CCC(=O)O)C(=O)N[C@@H](CCC(N)=O)C(=O)N[C@@H](C)C(=O)N[C@@H](CCC(=O)O)C(=O)N[C@H](C(=O)N[C@@H](CC(N)=O)C(=O)N[C@H](C(=O)N[C@@H](CCC(N)=O)C(=O)N[C@H](C(=O)N[C@@H](CC(C)C)C(=O)N[C@@H](C)C(=O)N[C@@H](CCC(N)=O)C(=O)N[C@H](C(N)=O)C(C)C)[C@@H](C)CC)C(C)C)[C@@H](C)O)[C@@H](C)CC)[C@@H](C)CC)C(C)C)C(C)C

EC50 [nM] (cAMP) [1]: 0.7 nM | Emax (% I) (CRF1R receptor): 6%
B3: SEQ ID NO 46 (peptide)
peptide: Ac-VLSLD[dV]PIK[αMeL]K([γGlu-C16 diacid])KILLEQEKQKKQREQAETN[Aib]QILAQV-NH2
SMILES: CC[C@H](C)[C@H](NC(=O)[C@H](CCC(N)=O)NC(=O)C(C)(C)NC(=O)[C@H](CC(N)=O)NC(=O)[C@@H](NC(=O)[C@H](CCC(=O)O)NC(=O)[C@H](C)NC(=O)[C@H](CCC(N)=O)NC(=O)[C@H](CCC(=O)O)NC(=O)[C@H](CCCNC(=N)N)NC(=O)[C@H](CCC(N)=O)NC(=O)[C@H](CCCCN)NC(=O)[C@H](CCCCN)NC(=O)[C@H](CCC(N)=O)NC(=O)[C@H](CCCCN)NC(=O)[C@H](CCC(=O)O)NC(=O)[C@H](CCC(N)=O)NC(=O)[C@H](CCC(=O)O)NC(=O)[C@H](CC(C)C)NC(=O)[C@H](CC(C)C)NC(=O)[C@@H](NC(=O)[C@H](CCCCN)NC(=O)[C@H](CCCCNC(=O)CC[C@H](NC(=O)CCCCCCCCCCCCCCC(=O)O)C(=O)O)NC(=O)[C@](C)(CC(C)C)NC(=O)[C@H](CCCCN)NC(=O)[C@@H](NC(=O)[C@@H]1CCCN1C(=O)[C@H](NC(=O)[C@H](CC(=O)O)NC(=O)[C@H](CC(C)C)NC(=O)[C@H](CO)NC(=O)[C@H](CC(C)C)NC(=O)[C@@H](NC(C)=O)C(C)C)C(C)C)[C@@H](C)CC)[C@@H](C)CC)[C@@H](C)O)C(=O)N[C@@H](CC(C)C)C(=O)N[C@@H](C)C(=O)N[C@@H](CCC(N)=O)C(=O)N[C@H](C(N)=O)C(C)C

EC50 [nM] (cAMP) [1]: 0.1 nM | Emax (% I) (CRF1R receptor): 10%
B5: SEQ ID NO 65 (peptide)
peptide: [NMeI]VLSLD[dV]PIK[αMeL]K([γGlu-C16 diacid])KILLEQEKQKKQREQAETN[Aib]QILAQV-NH2
modifications: N-terminus assumed
SMILES: CC[C@H](C)[C@H](NC)C(=O)N[C@H](C(=O)N[C@@H](CC(C)C)C(=O)N[C@@H](CO)C(=O)N[C@@H](CC(C)C)C(=O)N[C@@H](CC(=O)O)C(=O)N[C@@H](C(=O)N1CCC[C@H]1C(=O)N[C@H](C(=O)N[C@@H](CCCCN)C(=O)N[C@@](C)(CC(C)C)C(=O)N[C@@H](CCCCNC(=O)CC[C@H](NC(=O)CCCCCCCCCCCCCCC(=O)O)C(=O)O)C(=O)N[C@@H](CCCCN)C(=O)N[C@H](C(=O)N[C@@H](CC(C)C)C(=O)N[C@@H](CC(C)C)C(=O)N[C@@H](CCC(=O)O)C(=O)N[C@@H](CCC(N)=O)C(=O)N[C@@H](CCC(=O)O)C(=O)N[C@@H](CCCCN)C(=O)N[C@@H](CCC(N)=O)C(=O)N[C@@H](CCCCN)C(=O)N[C@@H](CCCCN)C(=O)N[C@@H](CCC(N)=O)C(=O)N[C@@H](CCCNC(=N)N)C(=O)N[C@@H](CCC(=O)O)C(=O)N[C@@H](CCC(N)=O)C(=O)N[C@@H](C)C(=O)N[C@@H](CCC(=O)O)C(=O)N[C@H](C(=O)N[C@@H](CC(N)=O)C(=O)NC(C)(C)C(=O)N[C@@H](CCC(N)=O)C(=O)N[C@H](C(=O)N[C@@H](CC(C)C)C(=O)N[C@@H](C)C(=O)N[C@@H](CCC(N)=O)C(=O)N[C@H](C(N)=O)C(C)C)[C@@H](C)CC)[C@@H](C)O)[C@@H](C)CC)[C@@H](C)CC)C(C)C)C(C)C
